The record followed here is patent US7183387.

Like-named read-outs stand apart in the source and are kept apart here.

The target in test [1] is human FcγRIIIA-F158 α subunit extracellular domain-6His-GST fusion (human) (UniProt P08637). The experiment in a line: ELISA, IgG:IgE hexamers on receptor-GST. In general terms: In an ELISA, binding on a coated surface is turned into a signal by an enzyme label.
Test [2] has as its target human FcγRIIB α subunit extracellular domain-His6-GST fusion (human) (UniProt P31994). The experiment in a line: immune complex ELISA, E27 background.
For test [3], the target named is human C1q (Quidel) (human) (UniProt P02745). The experiment in a line: C1q ELISA.
Chain of human C1q (Quidel) (human) (P02745 23-245, chain 1 of 3): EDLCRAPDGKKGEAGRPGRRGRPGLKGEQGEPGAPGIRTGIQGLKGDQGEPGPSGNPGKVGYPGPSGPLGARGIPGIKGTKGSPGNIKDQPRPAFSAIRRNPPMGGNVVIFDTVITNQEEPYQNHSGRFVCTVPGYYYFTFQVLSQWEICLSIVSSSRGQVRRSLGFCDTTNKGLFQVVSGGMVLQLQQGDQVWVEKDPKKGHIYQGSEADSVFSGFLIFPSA
Chain of human C1q (Quidel) (human) (P02746 28-253, chain 2 of 3, further chain): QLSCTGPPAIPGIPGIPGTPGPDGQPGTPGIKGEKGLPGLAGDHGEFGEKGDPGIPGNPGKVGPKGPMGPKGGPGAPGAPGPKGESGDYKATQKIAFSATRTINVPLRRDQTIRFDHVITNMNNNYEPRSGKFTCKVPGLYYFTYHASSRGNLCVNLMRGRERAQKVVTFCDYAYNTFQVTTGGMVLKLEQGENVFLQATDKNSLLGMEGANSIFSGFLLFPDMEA
Chain of human C1q (Quidel) (human) (P02747 29-245, chain 3 of 3, further chain): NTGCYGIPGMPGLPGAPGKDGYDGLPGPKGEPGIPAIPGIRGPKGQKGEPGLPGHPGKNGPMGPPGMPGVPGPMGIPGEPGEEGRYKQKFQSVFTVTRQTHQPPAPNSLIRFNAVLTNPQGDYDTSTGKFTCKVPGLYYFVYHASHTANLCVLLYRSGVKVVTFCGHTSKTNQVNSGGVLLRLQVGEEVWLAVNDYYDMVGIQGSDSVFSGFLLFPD
For test [4] the target is unchanged. The experiment in a line: cell-based or functional assay.
For test [5], the target named is human FcγRIIA-R131 α subunit extracellular domain-6His-GST fusion (human) (UniProt P12318). The experiment in a line: ELISA, IgG:IgE hexamers on receptor-GST.
Chain of human FcγRIIA-R131 α subunit extracellular domain-6His-GST fusion (human) (P12318 other isoform, or with tags, fused parts or gaps, form in doubt): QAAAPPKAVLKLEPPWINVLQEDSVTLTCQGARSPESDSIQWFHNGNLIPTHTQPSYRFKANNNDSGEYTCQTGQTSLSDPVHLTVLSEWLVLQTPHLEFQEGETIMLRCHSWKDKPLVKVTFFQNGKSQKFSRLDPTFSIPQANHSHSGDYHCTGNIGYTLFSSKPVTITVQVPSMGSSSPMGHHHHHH
Test [6] addresses human FcγRIIB α subunit extracellular domain-6His-GST fusion (human) (UniProt P31994). The experiment in a line: ELISA, IgG:IgE hexamers on receptor-GST.
For test [7], the target named is human FcγRIIA-R131 α subunit extracellular domain-His6-GST fusion (human) (UniProt P12318). The experiment in a line: ELISA, IgG complex, receptor coated.
Chain of human FcγRIIA-R131 α subunit extracellular domain-His6-GST fusion (human) (P12318 other isoform, or with tags, fused parts or gaps, form in doubt): as above
The target in test [8] is human FcγRIA α subunit extracellular domain-His6-GST fusion (human) (UniProt P12314). The experiment in a line: FcγRI ELISA and THP-1 cells, averaged.
Chain of human FcγRIA α subunit extracellular domain-His6-GST fusion (human) (P12314 other isoform, or with tags, fused parts or gaps): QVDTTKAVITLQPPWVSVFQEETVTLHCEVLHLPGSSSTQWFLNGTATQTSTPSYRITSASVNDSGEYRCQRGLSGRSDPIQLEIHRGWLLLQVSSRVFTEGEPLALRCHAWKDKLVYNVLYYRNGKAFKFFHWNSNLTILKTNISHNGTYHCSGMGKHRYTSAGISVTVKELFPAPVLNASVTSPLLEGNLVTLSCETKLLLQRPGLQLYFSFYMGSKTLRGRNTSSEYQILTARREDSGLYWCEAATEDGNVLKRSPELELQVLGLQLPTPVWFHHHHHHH
In test [9] the target is human C1q (Quidel) (human) (UniProt P02745). The experiment in a line: C1q ELISA. This is another data set of the same source.
Test [10] deals with CD20 antigen on WIL2-S cells (UniProt P11836). The experiment in a line: flow cytometry, WIL2-S cells. A general note: In flow cytometry, cells or beads pass a laser one at a time.
Chain of CD20 antigen on WIL2-S cells (P11836 whole entry, the tested form may be a part): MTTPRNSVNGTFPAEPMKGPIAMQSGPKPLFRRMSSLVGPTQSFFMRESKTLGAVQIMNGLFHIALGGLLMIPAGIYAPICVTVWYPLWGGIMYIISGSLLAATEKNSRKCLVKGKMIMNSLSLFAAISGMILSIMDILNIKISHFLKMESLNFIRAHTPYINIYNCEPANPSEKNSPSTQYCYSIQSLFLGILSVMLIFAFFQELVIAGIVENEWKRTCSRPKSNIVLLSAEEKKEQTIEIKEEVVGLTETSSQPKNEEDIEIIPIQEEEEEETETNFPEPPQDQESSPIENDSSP
Test [11] has as its target human FcγRIIA-R131 α subunit extracellular domain-His6-GST fusion (human) (UniProt P12318). The experiment in a line: ELISA, IgG:IgE hexamer on coated FcγRIIA-R131-GST; value carried over from Table 6, 7 or 8.
Test [12] has as its target human FcγRIIIA-Phe158 on cells (CHO cells stably transfected with α- and γ-chains; NK cells of Phe158/Phe158 donors) (human) (UniProt P08637). The experiment in a line: cell-based or functional assay.
The target in test [13] is human FcγRIIA-Arg131 α subunit extracellular domain-His6-GST fusion (human) (UniProt P12318). The experiment in a line: hexamer ELISA.
Chain of human FcγRIIA-Arg131 α subunit extracellular domain-His6-GST fusion (human) (P12318 other isoform, or with tags, fused parts or gaps): as the sequence (P12318 other isoform, or with tags, fused parts or gaps, form in doubt) above
Test [14] has as its target human neonatal Fc receptor (FcRn), biotinylated (human) (UniProt P55899). The experiment in a line: FcRn ELISA, pH 6.0.
The target of test [15] is human C1q (Quidel) (human) (UniProt P02745). The experiment in a line: C1q ELISA. The source holds these as a separate data set.

Chain of human FcγRIIB α subunit extracellular domain-6His-GST fusion (human) (P31994 other isoform, or with tags, fused parts or gaps, form in doubt): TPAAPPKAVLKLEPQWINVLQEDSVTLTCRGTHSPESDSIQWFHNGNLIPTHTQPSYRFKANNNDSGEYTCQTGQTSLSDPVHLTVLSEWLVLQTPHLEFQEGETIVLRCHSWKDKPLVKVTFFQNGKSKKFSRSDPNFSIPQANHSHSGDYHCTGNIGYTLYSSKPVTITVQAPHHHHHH
Chain of human FcγRIIB α subunit extracellular domain-His6-GST fusion (human) (P31994 other isoform, or with tags, fused parts or gaps): as the sequence (P31994 other isoform, or with tags, fused parts or gaps, form in doubt) above
Chain of human neonatal Fc receptor (FcRn), biotinylated (human) (P55899 24-297 limits assumed, chain 1 of 2): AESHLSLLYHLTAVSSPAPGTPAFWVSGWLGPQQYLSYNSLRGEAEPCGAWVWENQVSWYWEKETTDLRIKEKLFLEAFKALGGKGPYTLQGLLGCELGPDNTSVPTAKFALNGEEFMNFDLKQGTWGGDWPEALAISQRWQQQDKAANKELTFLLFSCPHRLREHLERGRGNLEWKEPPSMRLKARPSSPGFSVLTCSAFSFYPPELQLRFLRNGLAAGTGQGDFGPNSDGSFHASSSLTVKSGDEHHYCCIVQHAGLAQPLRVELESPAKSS
Chain of human neonatal Fc receptor (FcRn), biotinylated (human) (P61769 21-119 limits assumed, chain 2 of 2, further chain): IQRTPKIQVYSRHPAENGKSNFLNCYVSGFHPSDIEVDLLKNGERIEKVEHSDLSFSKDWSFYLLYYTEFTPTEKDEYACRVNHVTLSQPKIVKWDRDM
Chain of human FcγRIIIA-Phe158 on cells (CHO cells stably transfected with α- and γ-chains; NK cells of Phe158/Phe158 donors) (human) (P08637 17-254, chain 1 of 2): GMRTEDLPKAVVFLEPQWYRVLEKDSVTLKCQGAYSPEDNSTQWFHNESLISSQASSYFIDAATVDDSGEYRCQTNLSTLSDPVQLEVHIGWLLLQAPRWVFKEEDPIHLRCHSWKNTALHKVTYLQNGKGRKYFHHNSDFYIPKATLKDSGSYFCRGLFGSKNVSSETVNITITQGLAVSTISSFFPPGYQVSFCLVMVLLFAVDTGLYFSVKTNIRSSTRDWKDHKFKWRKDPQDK
Chain of human FcγRIIIA-Phe158 on cells (CHO cells stably transfected with α- and γ-chains; NK cells of Phe158/Phe158 donors) (human) (P30273 19-86, chain 2 of 2, further chain): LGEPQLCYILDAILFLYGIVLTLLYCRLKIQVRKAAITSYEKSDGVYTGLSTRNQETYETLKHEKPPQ

On to E27 IgG1 variant S267(280)T (antibody), for which, in test [1], the ratio to native IgG1 came to 0.05.
Turning to anti-IgE E27 IgG1 Pro329Ala (antibody), the percentage of the wild type in [2] is 96%.
Regarding C2B8 K326M-E333S (antibody), the fold better binding than wild type in test [3] was > 3 fold. Besides, in [4], the CDC was found to be 2 fold.
Turning to “E27 IgG1 variant K320(339)R (IG2 172) (antibody)”, the ratio to native IgG1 is 0.71 in test [5], 0.66 in test [6] and 0.68 in [1].
Consider “anti-IgE E27 IgG1 variant S298(317)V (antibody)”, for which the ratio of binding, variant/native IgG1 (mean) in test [7] was found to be 0.11.
Consider anti-IgE E27 IgG1 Asn297Ala (antibody), for which the ratio to native IgG1 in [8] stood at 0.15.
Take C2B8 K326W (antibody): the fold increase in binding against wild type in test [3] was 5 fold; in test [9], > 2 fold.
In the case of “C2B8 (human IgG1 constant region) A327 changed to glycine (antibody)”, the increase in binding against wild type in [3] is 50%.
Turning to C2B8 K326A-E333A (antibody), in test [3], the fold better binding than wild type is > 3 fold. Further, the CDC in test [4] was determined as 2 fold.
On to C2B8 K326E (antibody), for which, in test [3], the fold increase in binding against wild type was > 2 fold.
Substance C2B8 E333A (antibody) displayed an increase in binding against wild type in test [3] of 30%.
The substance C2B8 K320A (antibody) had a CDC (% of wild type) in test [4] of 108. For the same substance, the percentage of the wild type in [10] turned out to be 102%.
Consider “anti-IgE E27 IgG1 variant Asp270Ala (antibody)”, for which the ratio of binding of the variant to that of native IgG1 (ratio (variant/native IgG1)) in [11] is 0.06.
Substance C2B8 P331A (antibody) showed a fold lower binding than wild type in test [3] of 60 fold. The same substance gave a percentage of the wild type in [10] of 103%.
On to “anti-p185HER2 IgG1 variant Ser298Ala/Glu333Ala/Lys334Ala (antibody)”, for which the ADCC, NK cells of Phe158/Phe158 donors in [12] was > 100%.
For the substance C2B8 E318A (antibody), the decrease in binding against wild type in test [3] came out at 30%. The CDC (% of wild type) in [4] was found to be 108. In test [10], this substance gave a percentage of the wild type of 89%.
With “anti-IgE E27 IgG1 Glu233Pro/Leu234Val/Leu235Ala/Gly236deleted (antibody)”, the ratio to native IgG1 stood at 0.08 in test [13] and 0.54 in [14].
Turning to C2B8 E333S (antibody), the fold increase in binding against wild type in [3] is > 2 fold; in test [15], 2 fold.
For C2B8 K326M (antibody), in test [3], the fold increase in binding against wild type is > 2 fold.
C2B8 K326A (antibody): the increase in binding against wild type in [3] came to 30%.
C2B8 P329A (antibody) registered a percentage of the wild type in [10] of 112%.
For the substance “E27 IgG1 variant K320(339)R (IG2 235) (antibody)”, the ratio to native IgG1 in [5] was determined as 1.24; in [6] it was 0.95; in test [1], 0.86.
For C2B8 K326D (antibody), the fold increase in binding against wild type in [3] was > 2 fold.
